Patent publication US20090098142A1

How the values were obtained:
[1] = target: native human IL-13 (human) (UniProt P35225); experiment: cell-based or functional assay
[2] = target: cynomolgus monkey IL-13 (NHP IL-13) (cynomolgus monkey); experiment: cell-based or functional assay
cynomolgus monkey IL-13 (NHP IL-13) (cynomolgus monkey), sequence (Q5I6E4 other isoform, or with tags, fused parts or gaps): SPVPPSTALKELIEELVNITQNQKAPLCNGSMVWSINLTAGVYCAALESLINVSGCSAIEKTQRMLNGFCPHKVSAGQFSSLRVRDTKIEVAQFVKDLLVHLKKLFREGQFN

native human IL-13 (human), sequence (P35225 other isoform, or with tags, fused parts or gaps): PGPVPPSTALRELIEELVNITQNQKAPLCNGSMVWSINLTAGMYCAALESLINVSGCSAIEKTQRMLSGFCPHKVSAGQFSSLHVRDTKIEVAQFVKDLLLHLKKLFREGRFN

STAT6 phosphorylation assay, native human IL-13 at 1 ng/ml, IC50 [1]: 0.554 nM | CD23 expression assay, non-human primate IL-13 at 1 ng/ml, IC50 [2]: 0.308 nM
B1: antibody with the murine heavy chain of MJ2-7 and a humanized light chain (antibody, part only; not given: humanized light chain, V domains shown, part only)
VH: EVQLQQSGAELVKPGASVKLSCTGSGFNIKDTYIHWVKQRPEQGLEWIGRIDPANDNIKYDPKFQGKATITADTSSNTAYLQLNSLTSEDTAVYYCARSEENWYDFFDYWGQGTTLTVSS
